From patent US20150030597A1 (US Dept. of Health and Human Services, published 2015)

Assays:
[1] = target: T1, soluble mouse VEGFR2-hIgG.FC fusion protein (mouse; human, UniProt P35918 20-762); assay: flow cytometry, transduced mouse CD3+CD4+ T cells stained with soluble mVEGFR2-hIgG.FC and PE anti-human IgG-FC; mean ± SEM of 5 experiments
T1 construct: Bought from R&D Systems; also called soluble mouse VEGFR-2-human IgG-FC fusion protein; mVEGFR2-hIgG.FC; not shown: human IgG Fc
Experimental: (§1) Mouse T cells were retrovirally transduced with retroviral vectors DC101-CD828Z or DC101-CD828BBZ CAR as described in Example 5 or were transduced with the DC101-CD8 or SP6-CD828BBZ vectors described in Comparative Example 1, or with an empty MSGV vector (lacking any of the CAR sequences). Surface expression of the retrovirally encoded transgene products in transduced CD3⁺ primary mouse T cells was determined by flow cytometry using the soluble mouse VEGFR-2-human IgG-FC fusion protein and PE-conjugated anti-human IgG-FC.
(§2) On day 4 post-transduction, cells were costained with anti-mouse CD8 antibody and CAR-specific reagents and were FACS analysed to determine the expression of transgene products in CD8⁺and CD8″ T cell subsets. Detection of DC101 CAR on retrovirally transduced mouse T cells on day 4 after transduction was achieved by indirect immunofluorescence with soluble mouse (m) VEGFR2-hIgG.FC fusion protein (R&D Systems®, Minneapolis, […].), followed by staining with a phycoerythrin (PE)-labeled goat anti-human IgG-FC antibody (eBioscience™, San Diego, Calif.). Briefly, 5×10⁵ cells were incubated with 2 μg of bovine serum albumin (BSA; Sigma-Aldrich®) or species-specific soluble mVEGFR2-hIgG.FC protein at 4° C. for 45 min. Cells were then washed in FACS buffer (phosphate buffered saline containing 1% FBS) and stained with PE-conjugated anti human IgG-FC (αchIgG.FC). At this step, mouse T cells were co-stained with peridinin chlorophyll (PerCP)-labeled anti-mouse CD8 (BD Pharmingen, San Diego, Calif.) at appropriate concentrations recommended by the manufacturer at 4° C. for 20-30 min, then washed and resuspended in FACS buffer. Cells incubated with 2 μg bovine serum albumin (BSA) and subsequently stained with PE-conjugated anti human IgG-FC (αhIgG-FC) and PerCP labeled anti-mouse CD8 served as a control.

[2] = target: T1, soluble mouse VEGFR2-hIgG.FC fusion …; assay: flow cytometry, transduced mouse CD3+CD8+ T cells stained with soluble mVEGFR2-hIgG.FC and PE anti-human IgG-FC; mean ± SEM of 5 experiments
Experimental: as §1, §2

T1 sequence (P35918 20-762 limits assumed): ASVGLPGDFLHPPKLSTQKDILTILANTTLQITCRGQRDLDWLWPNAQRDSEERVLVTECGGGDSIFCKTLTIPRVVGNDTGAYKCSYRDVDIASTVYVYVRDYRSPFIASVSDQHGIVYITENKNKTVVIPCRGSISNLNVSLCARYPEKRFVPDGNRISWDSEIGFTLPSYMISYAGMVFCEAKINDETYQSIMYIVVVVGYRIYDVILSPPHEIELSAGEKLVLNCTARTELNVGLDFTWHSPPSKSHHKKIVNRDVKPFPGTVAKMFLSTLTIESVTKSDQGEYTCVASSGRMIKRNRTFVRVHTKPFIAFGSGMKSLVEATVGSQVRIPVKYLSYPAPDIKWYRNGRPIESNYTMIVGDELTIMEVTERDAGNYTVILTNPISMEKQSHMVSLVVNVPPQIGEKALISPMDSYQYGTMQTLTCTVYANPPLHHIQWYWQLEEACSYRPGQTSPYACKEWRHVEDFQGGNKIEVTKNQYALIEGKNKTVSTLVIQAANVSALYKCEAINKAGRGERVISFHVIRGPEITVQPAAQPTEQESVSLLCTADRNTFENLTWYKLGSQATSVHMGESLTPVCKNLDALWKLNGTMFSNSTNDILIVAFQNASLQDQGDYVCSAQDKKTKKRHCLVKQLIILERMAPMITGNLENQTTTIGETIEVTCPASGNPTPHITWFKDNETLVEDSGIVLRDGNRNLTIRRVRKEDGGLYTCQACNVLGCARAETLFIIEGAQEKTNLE

B1: DC101-CD828Z CAR (other)
chain: EVQLVETGGGLVQPGNSLKLSCATSGFIFSTTWMNWIRQTPGKRLEWLAQIEDKSNNYFISYSESVKGRFTISRDDSKSSVYLQMNNLKEEDTAIYYCSWKYRSNYYFDYWGQGVMVTVSSGSTSGSGKPGSGEGSDIVLTQSPALAVSLEQRATISCKTSQNVDYYGISYLHWYQQKPGQQPKLLIYEGSNLASGIPARFSGSGSGTDFTLTIDPVEADDIVTYYCQQSKDYPYTFGAGTKLELKAAATTTKPVLRTPSPVHPTGTSQPQRPEDCRPRGSVKGTGLDFACDIYIWAPLAGICVALLLSLIITLICYHRSRNSRRNRLLQVTTMNMTPRRPGLTRKPYQPYAPARDFAAYRPRAKFSRSAETAANLQDPNQLYNELNLGRREEYDVLEKKRARDPEMGGKQQRRRNPQEGVYNALQKDKMAEAYSEIGTKGERRRGKGHDGLYQGLSTATKDTYDALHMQTLAPR
notes: Chimeric antigen receptor on transduced primary mouse T cells: same as DC101-CD828BBZ but without the 4-1BB signalling domain; also called DC101-mCD828Z; MSGV-DC101-CD828Z
% Transduction (percent transgene positive cells) [1]: 84% | Mean Fluorescence Intensity (MFI) [1]: 95 | % Transduction (percent transgene positive cells) [2]: 86% | Mean Fluorescence Intensity (MFI) [2]: 92

B2: DC101-CD828BBZ CAR (other)
chain: EVQLVETGGGLVQPGNSLKLSCATSGFIFSTTWMNWIRQTPGKRLEWLAQIEDKSNNYFISYSESVKGRFTISRDDSKSSVYLQMNNLKEEDTAIYYCSWKYRSNYYFDYWGQGVMVTVSSGSTSGSGKPGSGEGSDIVLTQSPALAVSLEQRATISCKTSQNVDYYGISYLHWYQQKPGQQPKLLIYEGSNLASGIPARFSGSGSGTDFTLTIDPVEADDIVTYYCQQSKDYPYTFGAGTKLELKAAATTTKPVLRTPSPVHPTGTSQPQRPEDCRPRGSVKGTGLDFACDIYIWAPLAGICVALLLSLIITLICYHRSRNSRRNRLLQVTTMNMTPRRPGLTRKPYQPYAPARDFAAYRPKWIRKKFPHIFKQPFKKTTGAAQEEDACSCRCPQEEEGGGGGYELRAKFSRSAETAANLQDPNQLYNELNLGRREEYDVLEKKRARDPEMGGKQQRRRNPQEGVYNALQKDKMAEAYSEIGTKGERRRGKGHDGLYQGLSTATKDTYDALHMQTLAPR
notes: also called DC101-mCD828BBZ; MSGV-DC101-CD828BBZ
% Transduction (percent transgene positive cells) [1]: 79% | Mean Fluorescence Intensity (MFI) [1]: 76.5 | % Transduction (percent transgene positive cells) [2]: 78.2% | Mean Fluorescence Intensity (MFI) [2]: 75.8

B3: DC101-CD8 (other)
chain: EVQLVETGGGLVQPGNSLKLSCATSGFIFSTTWMNWIRQTPGKRLEWLAQIEDKSNNYFISYSESVKGRFTISRDDSKSSVYLQMNNLKEEDTAIYYCSWKYRSNYYFDYWGQGVMVTVSSGSTSGSGKPGSGEGSDIVLTQSPALAVSLEQRATISCKTSQNVDYYGISYLHWYQQKPGQQPKLLIYEGSNLASGIPARFSGSGSGTDFTLTIDPVEADDIVTYYCQQSKDYPYTFGAGTKLELKTTTKPVLRTPSPVHPTGTSQPQRPEDCRPRGSVKGTGLDFACDIYIWAPLAGICVALLLSLIITLICYHRSR
notes: also called MSGV-DC101-CD8
% Transduction (percent transgene positive cells) [1]: 83.2% | Mean Fluorescence Intensity (MFI) [1]: 114 | % Transduction (percent transgene positive cells) [2]: 80.8% | Mean Fluorescence Intensity (MFI) [2]: 108
